Data published in US20020106724A1 (RIKEN, published 2002).

Target: T1, GST alone (UniProt P08515 1-218 = GST)
T1 construct: Control protein in the pull-downs; also called purified GST; glutathione-S-transferase
Experiment: pull-down of purified His6-tagged fragment with GST fusions, Western blot with anti-Xpress antibody
Description: A His₆-tagged recombinant protein comprising a C-terminal region of SYNCRIP (amino acids 401-561) was expressed in E. coli using pREST plasmid (Invitrogen). The recombinant protein was recovered from inclusion bodies by using a denaturing solution (6 M guanidine-HCl, 10 mM Tris-HCl (pH 8.0), 0.5 M NaCl, 1 mM β-mercapto-ethanol) and purified with ProBond resin. The denatured recombinant protein was refolded by dialysis against 10 mM Tris-HCl (pH 8.0), 10 mM β-mercaptoethanol, 0.1 M NaCl and 1 mM EDTA, with gradual decrease of urea concentration from 6 M to 0.001 M. The dialysate was centrifuged at 12,000 rpm at 4° C. for 20 min to remove the malfolded part and insoluble matter. After aliquots were incubated with various GST-fusion proteins with one of the Syt-II C2 domains, bound proteins were recovered and subjected to Western blotting using anti-Xpress antibody (Invitrogen).

T1 sequence (P08515 whole entry): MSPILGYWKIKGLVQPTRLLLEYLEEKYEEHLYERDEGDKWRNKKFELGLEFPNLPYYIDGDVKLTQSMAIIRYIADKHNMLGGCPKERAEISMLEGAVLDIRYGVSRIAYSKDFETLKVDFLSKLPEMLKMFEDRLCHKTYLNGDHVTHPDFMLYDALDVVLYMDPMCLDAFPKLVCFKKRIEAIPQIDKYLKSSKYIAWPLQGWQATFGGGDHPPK

B1: His6-tagged recombinant protein comprising a C-terminal region of SYNCRIP (amino acids 401-561) (other, not shown: small tags and cut ends)
chain: IEIVFAKPPDQKRKERKAQRQAAKNQMYDDYYYYGPPHMPPPTRGRGRGGRGGYGYPPDYYGYEDYYDYYGYDYHNYRGGYEDPYYGYEDFQVGARGRGGRGARGAAPSRGRGAAPPRGRAGYSQRGGPGSARGVRGARGGAQQQRGRGGKGVEAGPDLLQ
notes: also called C-terminal region of SYBCRIP
binding result: no binding
